The supplement of paper PMC9170038

Test system: MS2 coat protein
Experiment: apparent KD of MS2 coat protein; designed switch direction (-1 OFF switch, 1 ON switch): -1; higher = weaker reporter binding
Summary of the method: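 Three titration conditions were used: no input, 200 uM small-molecule ligand, and an oligonucleotide input. In each, SNAP-549-labelled MS2 coat protein was raised from 0.7 or 1.5 nM, doubling, to 3 µM over designed RNA switches transcribed on Illumina chips by stalled E. coli RNA polymerase. Curve fits of normalised cluster fluorescence gave values whose per-design median over clusters is the apparent KD.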

[1] = Eterna round: R95, input ligand: FMN 200 uM
[2] = Eterna round: R95, input ligand: microRNA oligo, concentration not stated
[3] = Eterna round: R95, input ligand: none
[4] = input ligand: microRNA oligo, concentration not stated

Sequence	apparent KD of MS2 coat protein [1]	apparent KD of MS2 coat protein [2]	apparent KD of MS2 coat protein [3]	apparent KD of MS2 coat protein (input ligand: FMN 200 uM)	apparent KD of MS2 coat protein [4]	apparent KD of MS2 coat protein (input ligand: none)
GCAGGAUAAGUUAGGAUAUACCUAUGGAUACAUAGGUAGAAGGGACAUGAGGAUCACCCAUGUGACUCACCUGC [Fiskers BMX 4 - 63] (puzzle: Brourd's mod of Exclusion 4)	0.0335 µM	0.0184 µM	0.0224 µM	–	–	–
GCAUCCAGUGUGAGGAUAUACCUCUGGAUACAUAGGUAGAAGGCACAUGAGGAUCACCCAUGUCCUAAGGAUGC [Fiskers BMX 4 - 29] (puzzle: Brourd's mod of Exclusion 4)	0.104 µM	0.0475 µM	0.0755 µM	–	–	–
GCAUGCGACUGAGGAUAUGUAGUGACCUCAGUCGAGACAUGAGGAUCACCCAUGUACAGCACGUGACAGAAGGCAGCACAUGAU [Eternabot solution 14] (Eterna round: R96, puzzle: Exclusion NG 2)	–	–	–	0.0632 µM	0.0385 µM	0.0537 µM
GCAUGGCGAGGAUAUACAUGAGGAUCACCCAUGUGAGAAUAAUAAGUGAGGAAGAAAAGUAGAAGGCGCUGUGG [Mat - Exclusion 3 - Mod of Salish D64] (puzzle: Exclusion 3)	0.25 µM	0.0701 µM	0.0978 µM	–	–	–
GCAUGGGCCGUCAGGAUAUAGGCGCCGUGAAGGUAUUAGAAGGGACAUGAGGAUCACCCAUGUAUGAGAAAAGA [Edtioresor] (puzzle: Brourd's mod of Exclusion 4)	–	0.0337 µM	–	–	–	–
GCAUGUUGGUAGGAUAUGCAGCGGAAACCGCUAGUAGAAGGAUUGACAUGAGGAUCACCCAUGUGAACCGAAGG [Arcelace] (Eterna round: R97, puzzle: Exclusion 6)	–	–	–	0.186 µM	–	0.0404 µM
GCCAGAGCAGGAUAUUCAAUAAUUCACAUGAGGAUCACCCAUGUCGAGCGAAAGCUCGAGGGAGAAGGGCUCUGGC [Fiskers Ex 5 - 6] (puzzle: Exclusion 5)	0.0143 µM	0.0348 µM	0.0394 µM	–	–	–
GCCGAAAAAGUGAGGAUAUACCUAUGGAUACAUAGGUAGAAGGCACAUGAGGAUCACCCAUGUGUCCUAACGGC [Eli bmx4 4.29] (Eterna round: R97, puzzle: Brourd's mod of Exclusion 4)	–	–	–	0.018 µM	–	0.0152 µM
GCCGAAAGCGUAGGAUAUUGAAUAAAGCGGAAACGCAAGACAUGAGGAUCACCCAUGUGUCCGGACGAGAAGGGCGAAAGCGGC [AK ExNG2-V2-2] (Eterna round: R96, puzzle: Exclusion NG 2)	–	–	–	0.0336 µM	0.0241 µM	0.0353 µM
GCCGGAUAAGUGAGGAUAUACCUAUGGAUACAUAGGUAGAAGGCACAUGAGGAUCACCCAUGUUCCUCUCCGGC [JL-BMX4-4.17 Eli mod] (Eterna round: R97, puzzle: Brourd's mod of Exclusion 4)	–	–	–	0.406 µM	–	0.0303 µM
GCCUCACUUGAGGAUCACCCAAGUCAGGAUAUCUACAGGCCGGCCAUACCAGCCUGCAAGAGAAGGGACUCUAA [Isriqu] (Eterna round: R97, puzzle: Exclusion 1)	–	–	–	0.245 µM	–	0.0323 µM
GCCUGUGAAGGAUAUACAUGAGGAUCACCCAUGUGGCGGAUAUACCCGCCGAGACCGUGUAGAAGGUCAUAGUA [Xezauser] (puzzle: Exclusion 3)	–	0.0361 µM	–	–	–	–
GCCUUAUGAGUCAGGAUAUACAAUAAAAUAAUUAAGUAGAAGGGACAUGAGGAUCACCCAUGUACAUUACAUUG [alecazam28] (Eterna round: R97, puzzle: Brourd's mod of Exclusion 4)	–	–	–	0.0824 µM	–	0.0216 µM
GCGAAAGCAAGCAGGUGAAACAUGAGGAUCACCCAUGUCCUCAUUUGCUCGUCUUAUAAGCUAUGCGAAAGCAUAGC [Sensor 3, v1 - 3] (puzzle: Sensor v3, turn-off variant 1)	0.0137 µM	0.113 µM	0.0125 µM	–	–	–
GCGCAGCUGGUAGGAUAUUACAGACAGGACUCACGUAAGGGAGCCUGACAUGAGGAUCACCCAUGUAAGAAGGGCCGUGGUAUC [Eternabot solution 11] (Eterna round: R96, puzzle: Exclusion NG 2)	–	–	–	0.0345 µM	0.0198 µM	0.0225 µM
GCGCCAUCGUGAGAUGGCGUAACGACAUGAGGAUCACCCAUGUAGGAUAUCGAUUGCUUUGCAGUCGAGAAGGGCAAGGUAAGU [JL ENG3 3.83] (Eterna round: R96, puzzle: Exclusion NG 3)	–	–	–	–	0.0243 µM	–
GCGCCAUCGUGAGAUGGCGUAUUUACAUGAGGAUCACCCAUGUAGGAUAUCGAUUGCUUUGCAGUCGAGAAGGGCAUGAUAAGU [JL ENG3 3.78] (Eterna round: R96, puzzle: Exclusion NG 3)	–	–	–	0.0725 µM	0.0373 µM	0.0545 µM

Sequence	apparent KD of MS2 coat protein [1]	apparent KD of MS2 coat protein [2]	apparent KD of MS2 coat protein [3]	apparent KD of MS2 coat protein (input ligand: FMN 200 uM)	apparent KD of MS2 coat protein [4]	apparent KD of MS2 coat protein (input ligand: none)
GCGCCAUCGUGAGAUGGCGUUUCGACAUGAGGAUCACCCAUGUAGGAUAUCGAUUGCUUUGCAGUCGAGAAGGGCGUGAUAAGU [JL ENG3 3.72] (Eterna round: R96, puzzle: Exclusion NG 3)	–	–	–	0.104 µM	0.0744 µM	0.0982 µM
GCGCUGUCAGGAUAUCGCGCGCGCGCGGAAAUGUGUGUGUGUGAGAAGGGACAUGAGGAUCACCCAUGUGGUGU [-28.5, -27.5 kcal, A 20%, 6-6bis] (Eterna round: R97, puzzle: Exclusion 4)	–	–	–	0.213 µM	–	0.583 µM
GCGCUGUCAGGAUAUGUGUGUGUGUGUGAAAGCGCGCGCGCGCAGAAGGGACAUGAGGAUCACCCAUGUGGUGU [-31.2, -30.2 kcal, A 20%, 6bis-6bis] (Eterna round: R97, puzzle: Exclusion 4)	–	–	–	0.0787 µM	–	0.265 µM
GCGGACUAGAUCGUGAGAUCUGAGACAUGAGGAUCACCCAUGUAGGAUAUCGAUUCGAAACGAAUCGAGAAGGGCAUAGUCCGC [JL denovo 8] (Eterna round: R96, puzzle: Exclusion NG 3)	–	–	–	0.0231 µM	0.016 µM	0.022 µM
GCGGUAUUCCCUGGAGUACCAUACAUGAGGAUCACCCAUGUAUAGGAUAUUGCAGGAGACAGCUGCGAGAAGGGUACAGGGUGU [Dierceza] (Eterna round: R96, puzzle: Exclusion NG 3)	–	–	–	0.0266 µM	0.0144 µM	0.0159 µM
GCGUGAAGGCAGGAUAUAAGAAAAGAAAGAAAAUUAGAAGGGCCGACAUGAGGAUCACCCAUGUGGGCAUGAUC [Xeorusza] (Eterna round: R97, puzzle: Exclusion 6)	–	–	–	0.0338 µM	–	0.0159 µM
GCGUGUGCCUAGGAUAUUGGGAAUAUGCAGAAACGAGAAGGAGGCACAUGAGGAUCACCCAUGUGAUGAAAAGA [Teesedri] (puzzle: Exclusion 6)	0.0167 µM	0.0456 µM	0.0617 µM	–	–	–
GCUAGAGCAGGAUAUCUAGAUCCACACAUGAGGAUCACCCAUGUACGGUCGAAAGACCGAAGAGAAGGGCUCUAGC [Omei Ex5 E12] (Eterna round: R97, puzzle: Exclusion 5)	–	–	–	0.0985 µM	–	0.067 µM
GCUAGGAAUGUCAGGAUAUGCUGAUCCUUGGAUCAGCAGAAGGGACAUGAGGAUCACCCAUGUGCUAACCUAGC [Mat - Exclusion 4 - JL Mod - D6] (Eterna round: R97, puzzle: Brourd's mod of Exclusion 4)	–	–	–	0.177 µM	–	0.0308 µM
GCUCUUGGGCAAGGAUAUCCUGCGCGGUUCCGGUUCGUGUCUGUCACAUGAGGAUCACCCAUGUGGGAGAAGGUGCCUGCGGUG [Design 74] (Eterna round: R96, puzzle: Exclusion NG 2)	–	–	–	0.0286 µM	0.0123 µM	0.0159 µM
GCUGGUCAAGGAUAUACAUGAGGAUCACCCAUGUGGUCACGUGACGAUAGUCACGAAUGUAGAAGGUGACCAGC [E3/3-C1] (Eterna round: R97, puzzle: Exclusion 3)	–	–	–	0.0511 µM	–	0.26 µM
GCUGGUCGAGGAUAUACAUGAGGAUCACCCAUGUGGUCACGUGACGAUAGUCACGAAUGUAGAAGGCGACCAGC [E3/3-A1] (Eterna round: R97, puzzle: Exclusion 3)	–	–	–	0.0669 µM	–	0.161 µM
GCUGGUCGAGGAUAUGCAUACACUGGAUACAGUGGAAGGUCACAUGAGGAUCACCCAUGUAGAAGGCGACCAGC [EX2 #35] (Eterna round: R97, puzzle: Exclusion 2)	–	–	–	0.122 µM	–	0.0351 µM
GCUUCGUCUGUGGGUGGUGACAUGAGGAUCACCCAUGUUUUGCUCGUCUUGUGCCGGGCCCGGCGCCCGGGCCCGGC [-38.7, -63.8, A 8%] (Eterna round: R97, puzzle: Sensor, turn-off variant 1)	–	–	–	0.721 µM	–	0.955 µM
GCUUGACGAGGAUAUGCAUACACUGGAUACAGUGGAAGGUCACAUGAGGAUCACCCAUGUAGAAGGCGUCGAGC [EX2 #40] (Eterna round: R97, puzzle: Exclusion 2)	–	–	–	0.123 µM	–	0.0354 µM
GCUUGUCGAGGAUAUGCAUACACUGGAUACAGUGGAAGGUCACAUGAGGAUCACCCAUGUAGAAGGCGACGAGC [EX2 #39] (Eterna round: R97, puzzle: Exclusion 2)	–	–	–	0.121 µM	–	0.0418 µM
GCUUGUCUUUAGGAUAUCGUGAGGCCCUUCAUACGAGAAGGAAAGACAUGAGGAUCACCCAUGUCGGGUAUCAC [Eternabot (L1) Solution 28] (Eterna round: R97, puzzle: Exclusion 6)	–	–	–	0.0518 µM	–	0.0208 µM
